This is an account of results in publication PMC4253524 (The EMBO Journal, 2014).

The target of the experiment is T1, Flag-tagged RelishΔS29-S45 (Drosophila melanogaster, UniProt Q94527 1-971, ΔS29-S45).
T1 sequence (looked up): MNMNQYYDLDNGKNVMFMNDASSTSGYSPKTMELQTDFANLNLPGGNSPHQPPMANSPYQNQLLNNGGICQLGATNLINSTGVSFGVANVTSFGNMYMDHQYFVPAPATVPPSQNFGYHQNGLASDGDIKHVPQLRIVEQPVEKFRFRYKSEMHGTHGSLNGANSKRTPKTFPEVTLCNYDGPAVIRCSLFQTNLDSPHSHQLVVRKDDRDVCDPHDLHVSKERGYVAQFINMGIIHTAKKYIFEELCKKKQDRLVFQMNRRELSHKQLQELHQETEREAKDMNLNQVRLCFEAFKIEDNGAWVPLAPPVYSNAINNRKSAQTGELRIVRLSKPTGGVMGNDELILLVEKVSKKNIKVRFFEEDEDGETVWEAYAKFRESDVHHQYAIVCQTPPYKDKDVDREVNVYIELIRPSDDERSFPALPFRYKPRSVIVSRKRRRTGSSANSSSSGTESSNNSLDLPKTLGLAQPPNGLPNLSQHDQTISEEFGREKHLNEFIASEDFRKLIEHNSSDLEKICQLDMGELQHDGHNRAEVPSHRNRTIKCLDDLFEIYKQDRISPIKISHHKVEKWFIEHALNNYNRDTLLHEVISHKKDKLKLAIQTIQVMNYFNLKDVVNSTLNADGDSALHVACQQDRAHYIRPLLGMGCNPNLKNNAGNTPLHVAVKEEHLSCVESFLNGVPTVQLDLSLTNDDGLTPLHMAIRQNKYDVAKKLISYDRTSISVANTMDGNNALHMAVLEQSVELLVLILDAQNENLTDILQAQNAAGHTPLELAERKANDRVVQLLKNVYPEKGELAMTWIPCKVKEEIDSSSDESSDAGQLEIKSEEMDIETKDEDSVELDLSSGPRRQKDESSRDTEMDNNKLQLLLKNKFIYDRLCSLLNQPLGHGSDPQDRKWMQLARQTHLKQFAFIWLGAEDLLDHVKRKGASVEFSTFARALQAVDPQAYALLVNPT
The experiment can be described thus: co-IP.

B1: His-tagged Akirin (natural protein, Drosophila melanogaster, UniProt Q9VS59 1-201, looked up)
chain: MACATLKRALDWESMNQRPPKRRRCNPFGQAGSNAGPASPSRDGPSTSAGLPHTPSNRFAKDSTEPSPFSESSLAKMSPDKMAESLCNEIKRLHKRKQLPITSSALERMQDSESSGSEMGPESPRRPDSPQNLMRHGEKALFTFKQVQLICESMIKERENQLRERYESVLTTKLAEQYDAFVKFTYDQIQRRYEAAPSYLS
With B1, the binding result is on record as “binds”.
